Experimental data: PMC3575693

Target: needle protein MxiH (Shigella flexneri) (UniProt P0A223)
Assay: co-purification with isolated needles, Western blot

Sequence of UniProt P0A223 (P0A223 whole entry): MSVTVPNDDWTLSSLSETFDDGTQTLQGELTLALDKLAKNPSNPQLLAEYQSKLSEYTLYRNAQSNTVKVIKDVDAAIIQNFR

IpaB (natural protein)
% IpaB in needles relative to the complemented strain, in the ipaDL99P strain: 100% | % IpaB in needles relative to the complemented strain, in the wild-type strain: 70%
